This assay has as its target LexA-UNC-119 (C. elegans) (UniProt Q10658). Kind of assay: two-hybrid; LexA baits and GAD preys in strain L40; data not shown.
UniProt Q10658, sequence (Q10658 whole entry): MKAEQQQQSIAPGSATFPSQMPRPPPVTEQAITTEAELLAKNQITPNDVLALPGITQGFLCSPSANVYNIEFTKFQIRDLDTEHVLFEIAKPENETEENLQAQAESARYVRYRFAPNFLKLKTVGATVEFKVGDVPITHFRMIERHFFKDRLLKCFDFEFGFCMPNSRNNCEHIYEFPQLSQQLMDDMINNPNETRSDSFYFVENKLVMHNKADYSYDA

As to ARL-3Δ17 (domain or fragment), the strength of interaction relative to ARL-3 FL (β-galactosidase activity) (fold of ARL-3 FL) was 0.2.

Values taken from article PMC1561584.
